This test deals with ΔN-PINK1-GFP (UniProt Q9BXM7). Nature of the test: co-IP; GFP IP (μMACS Epitope Tag Protein Isolation kit) of lysates of transfected HEK293 cells; immunoblot.
Sequence of UniProt Q9BXM7 (Q9BXM7 78-581, stated change not applied): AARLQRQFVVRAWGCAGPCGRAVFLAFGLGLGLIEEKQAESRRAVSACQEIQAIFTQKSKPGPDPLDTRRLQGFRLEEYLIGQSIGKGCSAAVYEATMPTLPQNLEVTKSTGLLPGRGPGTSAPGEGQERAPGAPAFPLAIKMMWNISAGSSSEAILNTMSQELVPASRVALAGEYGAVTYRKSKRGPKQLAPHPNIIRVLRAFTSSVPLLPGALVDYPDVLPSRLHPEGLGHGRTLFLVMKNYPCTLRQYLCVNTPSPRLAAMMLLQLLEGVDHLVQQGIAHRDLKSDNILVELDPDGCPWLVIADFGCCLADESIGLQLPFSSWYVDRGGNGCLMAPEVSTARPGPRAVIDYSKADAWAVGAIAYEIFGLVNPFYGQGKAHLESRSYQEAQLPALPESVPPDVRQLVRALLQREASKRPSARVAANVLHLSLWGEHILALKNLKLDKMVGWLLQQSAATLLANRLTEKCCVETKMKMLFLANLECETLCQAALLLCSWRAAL

Consider “valosin-containing protein (VCP), endogenous in HEK293 cells (from UniProt P55072 1-806) (natural protein)”, for which the fold of VCP pulled down against OMM-PINK1-GFP worked out at 4 fold.

Source of the values: article PMC6377406.
